Measurements taken from article PMC13230913 (Nature Communications, 2026).

How the values were obtained:
[1] = target: T1, stabilized, soluble prefusion measles virus F ectodomain (F_ECTO E170G, E455G, residues 1-495) (Measles virus strain Ichinose-B95a, stabilised); assay: SPR
T1 chain 1: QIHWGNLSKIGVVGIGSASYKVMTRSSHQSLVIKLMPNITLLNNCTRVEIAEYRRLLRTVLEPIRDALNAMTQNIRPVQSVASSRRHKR
T1 chain 2: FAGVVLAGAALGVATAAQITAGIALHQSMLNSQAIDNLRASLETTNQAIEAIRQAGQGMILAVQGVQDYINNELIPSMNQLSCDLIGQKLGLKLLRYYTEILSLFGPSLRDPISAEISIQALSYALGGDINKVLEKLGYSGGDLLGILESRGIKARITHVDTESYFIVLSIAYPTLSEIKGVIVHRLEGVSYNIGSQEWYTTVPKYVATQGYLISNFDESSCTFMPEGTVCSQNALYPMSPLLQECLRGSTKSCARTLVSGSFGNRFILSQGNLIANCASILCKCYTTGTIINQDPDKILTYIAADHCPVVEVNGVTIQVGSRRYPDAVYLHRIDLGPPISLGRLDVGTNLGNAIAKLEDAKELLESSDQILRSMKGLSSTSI

[2] = target: T1, stabilized, soluble prefusion measles …; assay: cell-based or functional assay
[3] = target: measles virus B3 F protein with L454W (destabilized prefusion conformation), on cells (Measles virus genotype B3)

B1: chimeric monoclonal antibody 77.1 (mouse Fab / human Fc) (antibody, V domains shown)
VH: DVQLQESGPGLVKPSQSLSLTCTVSGYSITSDYAWNWIRQFPGNKLEWMGYISYTLTTGYNPSLKSRISITRDSSKNQFFLQLNSVTTEDTATYYCARSGWLLPYWYFDVWGAGTTVTVSS
VL: DVQITQSPSYLAASPGETITINCRASKSISKYLAWYQEKPGKTNELLIYSGSTLQSGIPSRFRGSGSGTDFTLTISSLEPEDFAMYYCQQHNEYTLTFGGGTKLELK
Kd [1]: 1.71 nM | koff [1]: 0.000207 s⁻¹ | kon [1]: 121000 ± 2000 M⁻¹ s⁻¹

B2: Y10F Fab (Fab, V domains shown)
VH: QVQLQQSGAELMKPGASVKISCKAAGYTFSNYWIEWVKQRPGHGLEWIGEILPGNSYTNYNEKFRGKATITADTSSNTAYMQLSSLTSEDSAVYYCASPLSGNYVRFAYWGQGTLVTVST
VL: QIVLSQSPAILSASPGEKVTMTCRATSSVVYMHWYQQKPGSSPKPWIYATSNLASGVPTRFSGSGSGTSYSLTISRVEAEDAATYYCQQWNSNPYTFGGGTKLEIK
melting temperature of F_ECTO with Fab by nanoDSF (F_ECTO alone 47.2 °C) [2]: 55.5 °C

B3: chimeric monoclonal antibody Y10F (mouse Fab / human Fc) (antibody, V domains shown)
VH: QVQLQQSGAELMKPGASVKISCKAAGYTFSNYWIEWVKQRPGHGLEWIGEILPGNSYTNYNEKFRGKATITADTSSNTAYMQLSSLTSEDSAVYYCASPLSGNYVRFAYWGQGTLVTVST
VL: QIVLSQSPAILSASPGEKVTMTCRATSSVVYMHWYQQKPGSSPKPWIYATSNLASGVPTRFSGSGSGTSYSLTISRVEAEDAATYYCQQWNSNPYTFGGGTKLEIK
Kd [1]: 99.9 nM | koff [1]: 0.00179 s⁻¹ | kon [1]: 17900 ± 300 M⁻¹ s⁻¹

B4: chimeric monoclonal antibody H8 (mouse Fab / human Fc) (antibody, V domains shown)
VH: QVQLQQSGAELVRPGTSVKISCKASGYTFINYWLGWVKQRPGHGLEWIGDIYPGGGHTKYNEKFKGKATLTADTSSSTAYMQLSSLTSEDSAVFFCARSGVGSSYYYWGQGTTLTVSS
VL: DIVLTQSPASLAVSLGQRATISCRASKSVSSSGYSFLHWYQQKPGQPPKLLIYLASNLDSGVPARFSGSGSGTDFTLNIHPVEEEDATTYYCQHSWELPTFGGGTKLEIK
Kd [1]: 3.17 nM | koff [1]: 7.48e-05 s⁻¹ | kon [1]: 23600 ± 810 M⁻¹ s⁻¹ | IC90 of plaque reduction neutralization test (PRNT), virus B3 F-L454W [3]: 23 nM
